Results as given in article PMC9158119 (2022).

Target: SARS-CoV-2 original strain spike receptor-binding domain (S-RBD) (SARS-CoV-2, UniProt P0DTC2 320-537)
Assay: SPR

B1: Nb-007 (VHH)
VHH: QLQLVESGGGLVQAGGSMRLSCAASISFSSFPMGWHRQAPGKQRELVAKTGIGGTAYDDSVKGRFTISRDNTKNTVYLQMNSLKVEDTAVYYCWGWRMNDYWGQGTQVTVSS
koff: 0.00103 s⁻¹
